Measured values published in publication PMC5827114, “A cryptic RNA-binding domain mediates Syncrip recognition and exosomal partitioning of miRNA targets”.

Tests used:
[1] = target: T1, Syncrip NURR domain (N) (Homo sapiens, UniProt O60506 16-109); assay: BLI; BLI: 5 mM Tris-HCl pH 7.4, 50 mM NaCl, 1 mM TCEP, 0.5 mg/mL BSA, 30 C; NMR: 5 mM Tris-HCl pH 7.4, 50 mM NaCl, 0.5 mM TCEP; conditions: protein: recombinant; tags: His6-SUMO or His, removed by HRV 3C; label: 5'-biotin
T1 sequence: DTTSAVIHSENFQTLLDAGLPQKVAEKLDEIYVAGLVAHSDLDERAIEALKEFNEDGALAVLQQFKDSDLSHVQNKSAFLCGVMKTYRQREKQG

[2] = target: T2, Syncrip NeR1R2R3 (Homo sapiens, UniProt O60506 16-428); assay: as above; conditions: protein: recombinant; tags: His6-SUMO or His, removed by HRV 3C; label: 5'-biotin (BLI)
T2 sequence: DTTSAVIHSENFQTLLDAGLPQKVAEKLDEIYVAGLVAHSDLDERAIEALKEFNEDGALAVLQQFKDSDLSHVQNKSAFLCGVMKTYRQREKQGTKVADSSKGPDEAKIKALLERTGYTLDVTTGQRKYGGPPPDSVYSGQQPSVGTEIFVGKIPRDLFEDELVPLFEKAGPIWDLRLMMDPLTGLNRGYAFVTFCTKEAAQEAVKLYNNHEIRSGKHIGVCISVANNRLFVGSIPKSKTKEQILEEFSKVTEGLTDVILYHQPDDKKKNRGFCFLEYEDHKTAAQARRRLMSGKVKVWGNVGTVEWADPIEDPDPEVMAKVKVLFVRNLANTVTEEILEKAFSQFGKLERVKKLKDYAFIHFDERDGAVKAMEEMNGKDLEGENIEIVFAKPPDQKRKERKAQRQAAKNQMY

[3] = target: T2, Syncrip NeR1R2R3; assay: as above; conditions: protein: recombinant; tags: His6-SUMO or His, removed by HRV 3C; label: 5'-biotin
[4] = target: T2, Syncrip NeR1R2R3; assay: NMR; only NURR resonances shift; BLI: 5 mM Tris-HCl pH 7.4, 50 mM NaCl, 1 mM TCEP, 0.5 mg/mL BSA, 30 C; NMR: 5 mM Tris-HCl pH 7.4, 50 mM NaCl, 0.5 mM TCEP; conditions: protein: recombinant; tags: His6-SUMO or His, removed by HRV 3C
[5] = target: T3, Syncrip NeR1 (Homo sapiens, UniProt O60506 16-242); assay: NMR; 50 uM protein, 1:1 and 1:2; BLI: 5 mM Tris-HCl pH 7.4, 50 mM NaCl, 1 mM TCEP, 0.5 mg/mL BSA, 30 C; NMR: 5 mM Tris-HCl pH 7.4, 50 mM NaCl, 0.5 mM TCEP; conditions: protein: recombinant; tags: His6-SUMO or His, removed by HRV 3C
T3 sequence: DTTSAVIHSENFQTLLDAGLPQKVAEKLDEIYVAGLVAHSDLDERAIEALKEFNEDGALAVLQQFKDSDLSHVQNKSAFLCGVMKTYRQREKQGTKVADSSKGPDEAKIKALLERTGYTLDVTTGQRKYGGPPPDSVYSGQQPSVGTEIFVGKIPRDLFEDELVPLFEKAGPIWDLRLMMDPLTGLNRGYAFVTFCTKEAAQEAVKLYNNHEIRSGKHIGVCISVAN

[6] = target: T1, Syncrip NURR domain (N); assay: NMR; BLI: 5 mM Tris-HCl pH 7.4, 50 mM NaCl, 1 mM TCEP, 0.5 mg/mL BSA, 30 C; NMR: 5 mM Tris-HCl pH 7.4, 50 mM NaCl, 0.5 mM TCEP; conditions: protein: recombinant; tags: His6-SUMO or His, removed by HRV 3C
[7] = target: T4, Syncrip NeR1 R60A G97L (Homo sapiens, UniProt O60506 16-242, R60A;G97L); assay: NMR; 50 uM protein, 1:1 and 1:2; legend: binding eliminated (text: impaired); BLI: 5 mM Tris-HCl pH 7.4, 50 mM NaCl, 1 mM TCEP, 0.5 mg/mL BSA, 30 C; NMR: 5 mM Tris-HCl pH 7.4, 50 mM NaCl, 0.5 mM TCEP; conditions: protein: recombinant; tags: His6-SUMO or His, removed by HRV 3C
T4 sequence: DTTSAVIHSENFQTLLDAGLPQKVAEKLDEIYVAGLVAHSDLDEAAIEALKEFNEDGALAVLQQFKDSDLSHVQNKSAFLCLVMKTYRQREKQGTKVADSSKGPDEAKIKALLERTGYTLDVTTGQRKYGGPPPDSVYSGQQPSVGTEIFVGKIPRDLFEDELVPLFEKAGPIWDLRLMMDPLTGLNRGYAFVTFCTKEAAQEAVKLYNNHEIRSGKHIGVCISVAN

In the case of GUAGACCAGGCUGG (ssRNA) [14mer miR-3470], the Kd [1] is reported as 29 ± 2 µM.

With UCACUUUGUAGACCAGGCUGG (ssRNA) [miR-3470 full-length] the Kd [2] was 0.002 ± 0.0002 µM.

In the case of UCACUUUGUAGACCAAGUGUU (ssRNA) [chimera miR-3470 (delta-hEXO mutant)], the “fold loss of affinity vs miR-3470 wild type” value [3] is reported as ~6 fold lower affinity than miR-3470 wild type.

AGGCU (ssRNA) [hEXO-motif RNA]: binds [4]; binds [5]; binds [6]. AGGCU (ssRNA) [hEXO-motif RNA]: no binding [7].
